Source: the supplement of paper PMC10567573

B1: FUT8 (parent)
chain: YPSYKVREKIETVKYPTYPEAEK

Variants of: B1
Test: protein stability index of a GFP-peptide fusion (GPS, HEK-293T) (PSI 1-6); higher = more stable
Conditions: c terminus: native
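Further: lentivirally expressed fusions sorted by FACS into six bins by GFP to DsRed ratio, PSI derived from sequencing read proportions per bin multiplied by bin number.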

Protein stability index, by site and new letter:
Y18: V 4.24; M 4.15; G 3.52; F 3.89; E 4.65; I 3.96; K 2.85; N 4.63; Q 4.54; C 4.98; T 4.7; R 5.1; A 4.08; H 4.31; W 3.63; S 4.68; D 4.47; P 5.06; L 3.87
T12: S 3.91; Y 4.15; V 2.14; W 3.21
Y15: Q 4.77; F 4.49; I 4.58; T 3.77; W 2.88; A 3.39; E 4.59; C 3.88; K 5.03; M 4.48; H 4.72; D 5.2; G 4.85; S 4.64; L 4.33; R 4.22; V 4.18; P 4.45
P19: N 4.11; Q 3.85; R 3.71; W 2.37; A 3.79; S 3.94; E 4.67; K 4.19; F 2.01; T 3.45; D 3.66; M 3.04; I 3.59; H 3.18; V 2.98; Y 1.25; G 3.94; C 3
E20: Y 3.52; S 3.56; C 3.33; K 4.69; N 4.41; I 2.88; F 3.39; L 3.5; D 4.62; W 2.9; H 3.97; T 3.87; V 3.48; Q 3.61; A 3.93; R 3.63; M 3.55; G 4.26
K14: L 2.97; R 4.27; T 3.61; Y 3.43; M 3.85; Q 4.21; I 3.88; P 4.09; C 4.18; V 3.65; S 4.44; W 1.68; H 3.95; A 4.17; E 4.03; N 4.62; G 4.98; F 2.73
P16: C 3.7; W 2.78; N 4.12; T 4.13; Q 4.14; K 4.19; V 4.6; L 4.03; A 3.89; E 4.29; H 4.06; F 4.79; R 3.95; S 3.75; I 3.65; M 4; G 4.28; Y 3.62; D 4.4
T17: E 4.43; H 4.41; S 4.79; N 4.75; C 3.8; Q 4.3; P 4.46; L 3.6; D 3.7; Y 2.87; F 3.45; M 3.77; A 4.56; R 4.34; V 4; W 1.94; I 3.7; G 4.02; K 4.69
A21: K 3.26; S 4.1; E 4.97; M 4.7; L 3.38; F 4.18; N 3.45; T 3.67; I 3.85; C 3.74; P 4.04; D 4.34; H 4.56; R 3.43; G 4.29
V13: K 4.62; R 4.34; W 3.04; C 4.12; L 4.29; S 4.69; I 4.29; H 3.97; T 4.18; Q 4.49; G 4.66; F 3.77; Y 3.72; M 3.7; N 4.26; P 4.24; D 4.64; A 4.7; E 4.79
